This note sets out measurements from US6632624.

The target of this assay is CGS20. Kind of assay: competition: pancreastatin peptide (0.5 µg per tube) added in second incubation of CGS06/CGS20* IRMA.

B1: synthetic peptide corresponding to pancreastatin (SEQ ID NO:1 amino acids 250 to 301 of human CgA) (peptide)
peptide: GESRSEALAVDGAGKPGAEEAQDPEGKGEQEHSQQKEEEEEMAVVPQGLFRG
As a reminder, the % inhibition is how much of the control response was suppressed. Low values mean little suppression, high ones strong suppression. B1 yielded a % inhibition of 86%.
